Experimental data reported in patent US20210270842A1 (DYAX, published 2021).

Experiments:
[1] = target: T1, intact high molecular weight kininogen (HMWK) (Homo sapiens, UniProt P01042 19-644); assay: optimized sandwich ELISA: M004-B04 capture, detection 11H05 + 13B12; value = C of the printed 4-P fit; the curve has no upper plateau in the range: last point about 0.95 at about 250 ng/mL, fitted line about 1.5 at 1000 ng/mL, so C and D are extrapolated
T1 construct: also called intact HMWK; 1-chain HMWK
T1 sequence: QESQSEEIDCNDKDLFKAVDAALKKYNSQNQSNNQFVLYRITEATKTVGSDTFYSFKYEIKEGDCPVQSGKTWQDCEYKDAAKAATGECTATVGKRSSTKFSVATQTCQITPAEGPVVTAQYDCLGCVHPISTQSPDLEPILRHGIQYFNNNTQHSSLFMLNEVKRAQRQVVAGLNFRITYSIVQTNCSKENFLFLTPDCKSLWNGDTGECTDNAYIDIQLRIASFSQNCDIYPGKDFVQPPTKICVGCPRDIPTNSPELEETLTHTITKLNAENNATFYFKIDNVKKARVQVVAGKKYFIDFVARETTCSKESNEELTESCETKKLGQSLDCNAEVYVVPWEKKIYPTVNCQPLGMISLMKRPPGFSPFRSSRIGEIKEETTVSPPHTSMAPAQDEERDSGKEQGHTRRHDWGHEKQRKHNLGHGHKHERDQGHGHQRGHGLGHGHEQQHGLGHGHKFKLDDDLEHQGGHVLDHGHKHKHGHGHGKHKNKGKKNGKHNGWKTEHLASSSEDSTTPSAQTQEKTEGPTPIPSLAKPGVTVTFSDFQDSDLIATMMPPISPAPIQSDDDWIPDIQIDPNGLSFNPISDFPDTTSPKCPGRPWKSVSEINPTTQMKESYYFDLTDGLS
Experimental: (§1) The following day, the plate was washed and then blocked with 2% BSA (Protease/IgG free) in PBS buffer. Following a wash, samples containing cleaved HMWK in 0.1% BSA buffer in PBS with 0.05% Tween-20 (2-Chain HMWK assay buffer). Purified protein standards (e.g., 2-chain HMWK, intact HMWK or LMWK) were spiked into HMWK-deficient plasma and diluted 1:320 in 2-chain HMWK assay buffer. Following plate washing with PBST, a mixture of 2 mouse monoclonal antibodies (11H05 and 13B12) at 1 μg/mL in 2-chain HMWK assay buffer were added for 1 hour at room temperature. Unbound detection antibodies were washed and a 1:2000 dilution of goat anti-mouse secondary antibody conjugated to horseradish peroxidase (HRP) was added. The assay containing the secondary antibody was incubated for 1 hour at room temperature, and unbound secondary antibody was removed by washing with 2-chain HMWK assay buffer. Signal was detected by the addition of 3,3′,5,5′-tetramethylbenzidine (TMB), an HRP substrate. The reaction was stopped with phosphoric acid. Hydrolysis of a TMB substrate was detected using a microplate reader at 450 nm-630 nm (FIG. 3). […] Using these immunoassay conditions, specifically binding to cleaved HMWK was detected.

[2] = target: T2, cleaved high molecular weight kininogen (HMWK) (human, UniProt P01042 19-380; P01042 390-644); assay: sandwich ELISA with coated Fab; value = C, midpoint of the printed 4-P fit; 2-chain HMWK spiked into HMWK-deficient plasma, analysed in 2.5% plasma
T2 construct: also called cleaved HMWK; 2-chain HMWK
T2 sequence 1: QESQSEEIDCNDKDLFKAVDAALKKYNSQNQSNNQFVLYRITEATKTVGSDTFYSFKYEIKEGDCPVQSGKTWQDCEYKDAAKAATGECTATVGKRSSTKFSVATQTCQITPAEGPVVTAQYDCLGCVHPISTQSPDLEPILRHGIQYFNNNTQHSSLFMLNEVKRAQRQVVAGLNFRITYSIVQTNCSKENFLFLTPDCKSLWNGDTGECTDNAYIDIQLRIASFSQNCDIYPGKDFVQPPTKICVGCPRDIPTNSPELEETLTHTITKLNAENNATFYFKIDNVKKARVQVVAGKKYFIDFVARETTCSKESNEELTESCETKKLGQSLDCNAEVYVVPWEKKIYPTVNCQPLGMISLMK
T2 sequence 2: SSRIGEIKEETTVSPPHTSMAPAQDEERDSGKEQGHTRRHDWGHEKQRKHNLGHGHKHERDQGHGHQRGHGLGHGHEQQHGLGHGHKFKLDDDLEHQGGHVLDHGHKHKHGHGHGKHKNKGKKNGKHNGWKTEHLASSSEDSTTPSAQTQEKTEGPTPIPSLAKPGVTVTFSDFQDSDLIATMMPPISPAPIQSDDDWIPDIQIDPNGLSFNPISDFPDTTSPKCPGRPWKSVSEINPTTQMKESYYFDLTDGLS
From the text: (§2) Purified cleaved HMWK was spiked into SBT assay buffer (open circles), SBT assay buffer and analyzed in the presence of 10% plasma (squares), or HMWK-deficient plasma and analyzed in the presence of 10% plasma (triangles). Purified cleaved HMWK was also spiked into assay buffer and analyzed in the presence of 2.5% plasma (diamonds) or HMWK deficient plasma and analyzed in the presence of 2.5% plasma (closed circles). The y-axis presents the ELISA signal in absorbance units, and the x-axis presents the concentration of kininogen in μg/mL.
as §1, with “Unbound detection antibodies were washed and a 1:2000 dilution of goat anti-mouse secondary antibody conjugated to horseradish peroxidase (HRP) was added. The assay containing the secondary antibody was incubated for 1 hour at room temperature, and unbound secondary antibody was removed by washing with 2-chain HMWK assay buffer.” left out, “The reaction was stopped with phosphoric acid.” left out

[3] = target: T2, cleaved high molecular weight kininogen …; assay: ELISA on coated M004-B04, 2-chain HMWK (in deficient plasma, diluted) titrated, no peptide (control); value = C, midpoint of the printed 4-P fit
Experimental: as §1, with “Following” for “The following day, the plate was washed and then blocked with 2% BSA (Protease/IgG free) in PBS buffer. Following a wash, samples containing cleaved HMWK in 0.1% BSA buffer in PBS with 0.05% Tween-20 (2-Chain HMWK assay buffer). Purified protein standards (e.g., 2-chain HMWK, intact HMWK or LMWK) were spiked into HMWK-deficient plasma and diluted 1:320 in 2-chain HMWK assay buffer. Following”
To perform the assay, the kininogen peptides were diluted to 250 μg/mL and allowed to preincubate on assay plate. Then, purified 2-chain HMWK in deficient human plasma was diluted 160 and then added to plate.

[4] = target: T2, cleaved high molecular weight kininogen …; assay: sandwich ELISA with coated Fab; value = C, midpoint of the printed 4-P fit; 2-chain HMWK spiked into assay buffer, analysed in 2.5% plasma
From the text: as §2
as §1, with “Unbound detection antibodies were washed and a 1:2000 dilution of goat anti-mouse secondary antibody conjugated to horseradish peroxidase (HRP) was added. The assay containing the secondary antibody was incubated for 1 hour at room temperature, and unbound secondary antibody was removed by washing with 2-chain HMWK assay buffer.” left out, “The reaction was stopped with phosphoric acid.” left out

EC50 [1]: 0.355 µg/mL
EC50 [2]: 184 µg/mL
EC50 [3]: 0.0123 µg/mL
EC50 [4]: 204 µg/mL
B1: 559B-M0004-B04 (Fab, V domains shown)
VH: EVQLLESGGGLVQPGGSLRLSCAASGFTFSFYVMVWVRQAPGKGLEWVSGISPSGGNTAYADSVKGRFTISRDNSKNTLYLQMNSLRAEDTAVYYCARKLFYYDDTKGYFDFWGQGTLVTVSS
VL: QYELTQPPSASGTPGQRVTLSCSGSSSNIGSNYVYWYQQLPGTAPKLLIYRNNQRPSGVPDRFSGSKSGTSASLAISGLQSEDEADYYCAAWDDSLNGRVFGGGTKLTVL
notes: also called M004-B04
